This passage reports Kd, koff and kon results from paper PMC12247212 (RSC Chemical Biology, 2025).

The target in one assay is T1, hen egg-white lysozyme (Gallus gallus, UniProt P00698).
T1 construct: lysozyme from chicken egg-white, Sigma-Aldrich 62971; also called Lysozyme from chicken egg-white; source: bought: Sigma-Aldrich (62971); further purified by SEC (Superdex 75 Increase)
Kind of assay: BLI; SpyBLI single-cycle kinetics, Octet-K2; SpyTagged nanobody or scFv loaded from cell-free reaction blend (diluted 100-fold in PBS + 0.05% Tween-20) onto biotinylated SpyCatcher003 S49C on streptavidin sensors; purified antigen as analyte at five increasing concentrations; 30 °C, 1000 rpm, PBS pH 7.5, 0.05% Tween-20; 1:1 standard model (1:1 partial dissociation model for Nb24); averages of three independent …. The settings on record: one partner purified. On the technique in general: In BLI a coated tip is dipped into the sample, and binding shifts an interference pattern.

Assay [1] addresses T2, β2-microglobulin (Homo sapiens (assumed), UniProt P61769).
T2 construct: β2-microglobulin, recombinant; MW ~12 kDa
Description: BLI; SpyBLI single-cycle kinetics, Octet-K2; purified SpyTagged nanobody or scFv loaded at 100 nM onto biotinylated SpyCatcher003 S49C on streptavidin sensors; purified antigen as analyte at five increasing concentrations; 30 °C, 1000 rpm, PBS pH 7.5, 0.05% Tween-20; 1:1 standard model (1:1 partial dissociation model for Nb24); averages of three independent experiments. The note with it: both partners purified.

In assay [2] the target is T2, β2-microglobulin. Kind of assay: BLI; SpyBLI single-cycle kinetics, Octet-K2; SpyTagged nanobody or scFv loaded from crude mammalian cell supernatant (1:1 with PBS + 0.05% Tween-20) onto biotinylated SpyCatcher003 S49C on streptavidin sensors; purified antigen as analyte at five increasing concentrations; 30 °C, 1000 rpm, PBS pH 7.5, 0.05% Tween-20; 1:1 standard model (1:1 partial dissociation model for Nb24); averages of three independent …. The note with it: one partner purified.

The target of assay [3] is T2, β2-microglobulin. Kind of assay: BLI; SpyBLI single-cycle kinetics, Octet-K2; SpyTagged nanobody or scFv loaded from cell-free reaction blend (diluted 100-fold in PBS + 0.05% Tween-20) onto biotinylated SpyCatcher003 S49C on streptavidin sensors; purified antigen as analyte at five increasing concentrations; 30 °C, 1000 rpm, PBS pH 7.5, 0.05% Tween-20; 1:1 standard model (1:1 partial dissociation model for Nb24); averages of three independent …. The settings on record: one partner purified.

The target in assay [4] is T3, CD16a-mMBP (Homo sapiens, allotype  …, UniProt P08637).
T3 construct: monovalent antigen; MW ~63 kDa; also called CD16a (FCGR3A); FcγRIIIa; source: Expi293F, transfected (pcDNA3.4 without SpyTag003), harvested 6 days post-transfection, purified
Description: BLI; SpyBLI single-cycle kinetics, Octet-K2; purified SpyTagged nanobody or scFv loaded at 100 nM onto biotinylated SpyCatcher003 S49C on streptavidin sensors; purified antigen as analyte at five increasing concentrations; 30 °C, 1000 rpm, PBS pH 7.5, 0.05% Tween-20; 1:1 standard model (1:1 partial dissociation model for Nb24); averages of three independent experiments. The settings on record: both partners purified.

In assay [5] the target is T3, CD16a-mMBP. Kind of assay: BLI; SpyBLI single-cycle kinetics, Octet-K2; SpyTagged nanobody or scFv loaded from crude mammalian cell supernatant (1:1 with PBS + 0.05% Tween-20) onto biotinylated SpyCatcher003 S49C on streptavidin sensors; purified antigen as analyte at five increasing concentrations; 30 °C, 1000 rpm, PBS pH 7.5, 0.05% Tween-20; 1:1 standard model (1:1 partial dissociation model for Nb24); averages of three independent …. The note with it: one partner purified.

The target in assay [6] is T3, CD16a-mMBP. Kind of assay: BLI; SpyBLI single-cycle kinetics, Octet-K2; SpyTagged nanobody or scFv loaded from cell-free reaction blend (diluted 100-fold in PBS + 0.05% Tween-20) onto biotinylated SpyCatcher003 S49C on streptavidin sensors; purified antigen as analyte at five increasing concentrations; 30 °C, 1000 rpm, PBS pH 7.5, 0.05% Tween-20; 1:1 standard model (1:1 partial dissociation model for Nb24); averages of three independent …. The note with it: one partner purified.

T3 sequence (P08637 17-254): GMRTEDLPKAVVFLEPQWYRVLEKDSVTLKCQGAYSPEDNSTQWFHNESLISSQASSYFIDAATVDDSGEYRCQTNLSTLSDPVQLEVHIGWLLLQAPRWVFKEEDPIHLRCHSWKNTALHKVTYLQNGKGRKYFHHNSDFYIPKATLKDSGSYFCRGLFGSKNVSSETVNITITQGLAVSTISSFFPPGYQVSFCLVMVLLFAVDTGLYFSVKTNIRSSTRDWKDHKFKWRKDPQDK
T1 sequence (P00698 19-147): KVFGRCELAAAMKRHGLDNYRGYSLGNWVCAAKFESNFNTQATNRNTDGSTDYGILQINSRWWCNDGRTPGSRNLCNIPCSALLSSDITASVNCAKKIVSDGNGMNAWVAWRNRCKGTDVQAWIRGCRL
T2 sequence (P61769 21-119): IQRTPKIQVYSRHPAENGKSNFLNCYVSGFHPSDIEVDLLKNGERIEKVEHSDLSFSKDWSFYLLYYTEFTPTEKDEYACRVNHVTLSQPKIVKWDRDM

B1: cAb-Lys3, SpyTagged nanobody (VHH)
VHH: DVQLQASGGGSVQAGGSLRLSCAASGYTIGPYCMGWFRQAPGKEREGVAAINMGGGITYYADSVKGRFTISQDNAKNTVYLLMNSLEPEDTAIYYCAADSTIYASYYECGHGLSTGGYGYDSWGQGTQVTVSS
notes: nanobody cAb-Lys3; The cell-free fragment design has an optional His-tag; also called Nb cAb-Lys3; not shown: SpyTag003 (after a (G3S)2 linker), C-terminal, kept
Broadly, the Kd is the constant that tells how readily two partners part at equilibrium. Usually koff stands for the rate constant with which the complex falls apart. The term kon denotes a measure of how fast the partners come together. Turning to B1, in the assay with hen egg-white lysozyme, the Kd came to 0.67 nM, the koff came out at 0.00116 s⁻¹ and the kon came to 1.7e+06 M⁻¹ s⁻¹.

B2: Nb24, SpyTagged nanobody (mammalian expression) (VHH)
VHH: QVQLQESGGGSVQAGGSLRLSCAASGYTDSRYCMAWFRQAPGKEREWVARINSGRDITYYADSVKGRFTFSQDNAKNTVYLQMDSLEPEDTATYYCATDIPLRCRDIVAKGGDGFRYWGQGTQVTVSS
notes: nanobody Nb24; (G3S)2 linker between the nanobody and SpyTag003; Covalently captured on biotinylated SpyCatcher003 S49C on streptavidin sensors; also called anti-β2-microglobulin nanobody Nb24; Nb24-SpyTag003; source: Expi293F, transfected (pcDNA3.4); purified (His Mag Sepharose Excel, SEC) or used directly as crude mammalian cell supernatant; not shown: SpyTag003 (after a (G3S)2 linker), …
For B2, in the assay with β2-microglobulin [1], binding was characterised by a dissociation constant (Kd) of 49.6 nM, the koff amounted to 0.0112 s⁻¹ and the kon came out at 230000 M⁻¹ s⁻¹. For the same molecule, in the assay with β2-microglobulin [2], the Kd came to 50 nM, the koff came out at 0.0114 s⁻¹ and the kon stood at 240000 M⁻¹ s⁻¹.

B3: Nb24, SpyTagged nanobody (cell-free expression) (VHH)
VHH: B2 VHH
notes: nanobody Nb24; as the VHH of m1; The cell-free fragment design has an optional His-tag; also called Nb24-SpyTag003; not shown: SpyTag003 (after a (G3S)2 linker), C-terminal, kept
For the molecule B3, in the assay with β2-microglobulin [3], the Kd stood at 63.8 nM, the koff turned out to be 0.014 s⁻¹ and the kon was determined as 220000 M⁻¹ s⁻¹.

B4: anti-CD16a scFv, SpyTagged (mammalian expression) (scFv, V domains shown)
VH: EVQLVQSGAEVKKPGESLKVSCKASGYTFTSYYMHWVRQAPGQGLEWMGAIEPMYGSTSYAQKFQGRVTMTRDTSTSTVYMELSSLRSEDTAVYYCARGSAYYYDFADYWGQGTLVTVSS
VL: SYVLTQPSSVSVAPGQTATISCGGHNIGSKNVHWYQQRPGQSPVLVIYQDNKRPSGIPERFSGSNSGNTATLTISGTQAMDEADYYCQVWDNYSVLFGGGTKLTVL
notes: scFv of the FcγRIIIa-targeting arm of RO7297089; (G3S)2 linker between the scFv and SpyTag003; also called FcγRIIIa-targeting arm of the bispecific antibody RO7297089; source: Expi293F, transfected (pcDNA3.4); purified (His Mag Sepharose Excel, SEC) or used directly as crude mammalian cell supernatant; not shown: SpyTag003 (after a (G3S)2 linker), C-terminal, kept
As to B4, in the assay with CD16a-mMBP [4], binding was characterised by a dissociation constant (Kd) of 6.7 nM, the koff stood at 0.00113 s⁻¹ and the on-rate constant (kon) is 171000 M⁻¹ s⁻¹. In the assay with CD16a-mMBP [5], the Kd was found to be 4.3 nM, the off-rate (koff) came out at 0.00081 s⁻¹ and the kon turned out to be 187000 M⁻¹ s⁻¹.

B5: anti-CD16a scFv, SpyTagged (cell-free expression) (scFv, V domains shown)
VH: B4 VH
VL: B4 VL
notes: as the scFv of m3; The cell-free fragment design has an optional His-tag; not shown: SpyTag003 (after a (G3S)2 linker), C-terminal, kept
Take B5: in the assay with CD16a-mMBP [6], the Kd came to 8.1 nM, the koff came out at 0.0018 s⁻¹ and the on-rate (kon) amounted to 220000 M⁻¹ s⁻¹.
